This data set has as its target T1, QKI5 (UniProt Q96PU8 1-341).
T1 sequence: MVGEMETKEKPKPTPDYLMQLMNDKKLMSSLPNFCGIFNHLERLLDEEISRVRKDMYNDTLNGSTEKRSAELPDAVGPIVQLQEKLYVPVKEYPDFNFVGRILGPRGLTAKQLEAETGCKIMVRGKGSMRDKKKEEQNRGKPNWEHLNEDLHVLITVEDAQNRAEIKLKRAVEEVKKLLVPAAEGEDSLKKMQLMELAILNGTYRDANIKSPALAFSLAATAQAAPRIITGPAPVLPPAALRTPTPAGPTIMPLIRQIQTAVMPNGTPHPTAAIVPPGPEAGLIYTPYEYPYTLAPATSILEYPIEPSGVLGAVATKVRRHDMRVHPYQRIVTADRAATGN
Kind of data set: EMSA; 50 fmol biotin-labelled probe; LightShift Chemiluminescent EMSA Kit per manufacturer; 50 fmol biotin-labelled probe, 4 ul QKI5; room temperature 20 min; native 8% PAGE; buffer, salt and pH not stated. Conditions: protein: commercial; chain copies: 2; label: 5'-biotin (cold version unlabelled); blunt. For orientation: Mobility shift assays separate free from complexed probe on a gel.

B1: wild-type CXCL2 promoter probe (dsDNA)
DNA 1: GAAAGGATGGGGGATTGCAACACTGTTAAC
DNA 2: GTTAACAGTGTTGCAATCCCCCATCCTTTC
In the case of B1, the binding result was “binds”.

B2: mutant CXCL2 promoter probe (dsDNA)
DNA 1: GAAAGGATGGAAAGCCATAACACTGTTAAC
DNA 2: GTTAACAGTGTTATGGCTTTCCATCCTTTC
For the molecule B2, the binding result was “no binding”.

The values are drawn from paper PMC8518180, “A global screening identifies chromatin-enriched RNA-binding proteins and the transcriptional regulatory activity of QKI5 during monocytic differentiation”.
